Laboratory results as given in PMC4894451 (Scientific Reports, 2014).

Molecular target: the molecule itself
Test: SEC

B1: DepH from Chromobacterium violaceum No. 968 (enzyme)
chain: not shown
stoichiometry N: 2
